T1: human EpCAM (human, UniProt P16422 24-314)
T1 sequence (looked up): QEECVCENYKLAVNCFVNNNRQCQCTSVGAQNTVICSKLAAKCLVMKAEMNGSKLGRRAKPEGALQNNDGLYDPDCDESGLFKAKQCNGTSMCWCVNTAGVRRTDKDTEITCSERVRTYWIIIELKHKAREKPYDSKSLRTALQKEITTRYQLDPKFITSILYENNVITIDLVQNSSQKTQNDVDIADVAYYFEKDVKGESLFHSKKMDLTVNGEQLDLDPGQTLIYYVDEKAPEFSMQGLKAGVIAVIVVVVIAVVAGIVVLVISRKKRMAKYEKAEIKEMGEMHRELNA

B1: ISOP130R5CP6_A06_Y85A vcMMAF conjugate (designed binder)
chain: MLPAPKNLVVSRVTEDSARLSWKHYRPGARFDSFLIQYQESEKVGEAIVLTVPGSERSYDLTGLKPGTEYTVSIYGVVTALPSYASSNPLSAIFTTGGHHHHHHGGLPETGGH
modifications: vcMMAF conjugated via the sortase reaction at the C-terminal sortase tag
B2: ISOP130R5CP6_A06_P27A vcMMAF conjugate (designed binder)
chain: MLPAPKNLVVSRVTEDSARLSWKHYRAGARFDSFLIQYQESEKVGEAIVLTVPGSERSYDLTGLKPGTEYTVSIYGVVTALPSYYSSNPLSAIFTTGGHHHHHHGGLPETGGH
modifications: vcMMAF conjugated via the sortase reaction at the C-terminal sortase tag
B3: ISOP130R5CP6_A06_K23A vcMMAF conjugate (designed binder)
chain: MLPAPKNLVVSRVTEDSARLSWAHYRPGARFDSFLIQYQESEKVGEAIVLTVPGSERSYDLTGLKPGTEYTVSIYGVVTALPSYYSSNPLSAIFTTGGHHHHHHGGLPETGGH
modifications: vcMMAF conjugated via the sortase reaction at the C-terminal sortase tag
B4: ISOP130R5CP6_A06_P82A vcMMAF conjugate (designed binder)
chain: MLPAPKNLVVSRVTEDSARLSWKHYRPGARFDSFLIQYQESEKVGEAIVLTVPGSERSYDLTGLKPGTEYTVSIYGVVTALASYYSSNPLSAIFTTGGHHHHHHGGLPETGGH
modifications: vcMMAF conjugated via the sortase reaction at the C-terminal sortase tag
B5: ISOP130R5CP6_A06_T79A vcMMAF conjugate (designed binder)
chain: MLPAPKNLVVSRVTEDSARLSWKHYRPGARFDSFLIQYQESEKVGEAIVLTVPGSERSYDLTGLKPGTEYTVSIYGVVAALPSYYSSNPLSAIFTTGGHHHHHHGGLPETGGH
modifications: vcMMAF conjugated via the sortase reaction at the C-terminal sortase tag
B6: ISOP130R5CP6_A06_G28A vcMMAF conjugate (designed binder)
chain: MLPAPKNLVVSRVTEDSARLSWKHYRPAARFDSFLIQYQESEKVGEAIVLTVPGSERSYDLTGLKPGTEYTVSIYGVVTALPSYYSSNPLSAIFTTGGHHHHHHGGLPETGGH
modifications: vcMMAF conjugated via the sortase reaction at the C-terminal sortase tag
B7: ISOP130R5CP6_A06_S86A vcMMAF conjugate (designed binder)
chain: MLPAPKNLVVSRVTEDSARLSWKHYRPGARFDSFLIQYQESEKVGEAIVLTVPGSERSYDLTGLKPGTEYTVSIYGVVTALPSYYASNPLSAIFTTGGHHHHHHGGLPETGGH
modifications: vcMMAF conjugated via the sortase reaction at the C-terminal sortase tag
B8: ISOP130R5CP6_A06_V78A vcMMAF conjugate (designed binder)
chain: MLPAPKNLVVSRVTEDSARLSWKHYRPGARFDSFLIQYQESEKVGEAIVLTVPGSERSYDLTGLKPGTEYTVSIYGVATALPSYYSSNPLSAIFTTGGHHHHHHGGLPETGGH
modifications: vcMMAF conjugated via the sortase reaction at the C-terminal sortase tag
B9: ISOP130R5CP6_A06_Y84A vcMMAF conjugate (designed binder)
chain: MLPAPKNLVVSRVTEDSARLSWKHYRPGARFDSFLIQYQESEKVGEAIVLTVPGSERSYDLTGLKPGTEYTVSIYGVVTALPSAYSSNPLSAIFTTGGHHHHHHGGLPETGGH
modifications: vcMMAF conjugated via the sortase reaction at the C-terminal sortase tag
B10: ISOP130R5CP6_A06_S83A vcMMAF conjugate (designed binder)
chain: MLPAPKNLVVSRVTEDSARLSWKHYRPGARFDSFLIQYQESEKVGEAIVLTVPGSERSYDLTGLKPGTEYTVSIYGVVTALPAYYSSNPLSAIFTTGGHHHHHHGGLPETGGH
modifications: vcMMAF conjugated via the sortase reaction at the C-terminal sortase tag
B11: ISOP130R5CP6_A06_L81A vcMMAF conjugate (designed binder)
chain: MLPAPKNLVVSRVTEDSARLSWKHYRPGARFDSFLIQYQESEKVGEAIVLTVPGSERSYDLTGLKPGTEYTVSIYGVVTAAPSYYSSNPLSAIFTTGGHHHHHHGGLPETGGH
modifications: vcMMAF conjugated via the sortase reaction at the C-terminal sortase tag
B12: ISOP130R5CP6_A06_R30A vcMMAF conjugate (designed binder)
chain: MLPAPKNLVVSRVTEDSARLSWKHYRPGAAFDSFLIQYQESEKVGEAIVLTVPGSERSYDLTGLKPGTEYTVSIYGVVTALPSYYSSNPLSAIFTTGGHHHHHHGGLPETGGH
modifications: vcMMAF conjugated via the sortase reaction at the C-terminal sortase tag
B13: ISOP130R5CP6_A06_R26A vcMMAF conjugate (designed binder)
chain: MLPAPKNLVVSRVTEDSARLSWKHYAPGARFDSFLIQYQESEKVGEAIVLTVPGSERSYDLTGLKPGTEYTVSIYGVVTALPSYYSSNPLSAIFTTGGHHHHHHGGLPETGGH
modifications: vcMMAF conjugated via the sortase reaction at the C-terminal sortase tag
B14: ISOP130R5CP6_E08srt vcMMAF conjugate (designed binder)
chain: MLPAPKNLVVSRVTEDSARLSWKHYRPGARFDSFLIQYQESEKVGEAIVLTVPGSERSYDLTGLKPGTEYTVSIYGVVAALPNNYASNPLSAIFTTGGHHHHHHGGLPETGGH
modifications: vcMMAF conjugated via the sortase reaction at the C-terminal sortase tag (Gly3-vcMMAF)
B15: ISOP130R5CP6_A06srt vcMMAF conjugate (designed binder)
chain: MLPAPKNLVVSRVTEDSARLSWKHYRPGARFDSFLIQYQESEKVGEAIVLTVPGSERSYDLTGLKPGTEYTVSIYGVVTALPSYYSSNPLSAIFTTGGHHHHHHGGLPETGGH
modifications: vcMMAF conjugated via the sortase reaction at the C-terminal sortase tag (Gly3-vcMMAF)

What was measured:
human EpCAM [1] = molecular target: T1, human EpCAM; assay: cell-based or functional assay
human EpCAM [2] = molecular target: T1, human EpCAM; assay: cell-based or functional assay; remark: listed apart in the source

Row | Binder | IC50 (nM), cytotoxicity on COLO205 cells (CellTiterGlo) (human EpCAM [1]) [nM] | % viable COLO205 cells, 1 nM (human EpCAM [2]) [%]
1 | B1 | 564 | –
2 | B2 | 42.6 | –
3 | B3 | 1 | –
4 | B4 | 326 | –
5 | B5 | 0.5 | –
6 | B6 | 0.8 | –
7 | B7 | 1.3 | –
8 | B8 | 4.5 | –
9 | B9 | 0.4 | –
10 | B10 | 1.4 | –
11 | B11 | 76 | –
12 | B12 | 0.8 | –
13 | B13 | 507 | –
14 | B14 | – | 66
15 | B15 | 1.6 | 67

Source: patent US20190184028A1 (Janssen / Centocor, published 2019)
